Results on one molecule are retold here after publication PMC11541587 (Nature Communications, 2024).

This assay has as its target HA-AMFR (UniProt Q9UKV5 1-643). The experiment in a line: co-IP.

Chain of HA-AMFR (Q9UKV5 whole entry): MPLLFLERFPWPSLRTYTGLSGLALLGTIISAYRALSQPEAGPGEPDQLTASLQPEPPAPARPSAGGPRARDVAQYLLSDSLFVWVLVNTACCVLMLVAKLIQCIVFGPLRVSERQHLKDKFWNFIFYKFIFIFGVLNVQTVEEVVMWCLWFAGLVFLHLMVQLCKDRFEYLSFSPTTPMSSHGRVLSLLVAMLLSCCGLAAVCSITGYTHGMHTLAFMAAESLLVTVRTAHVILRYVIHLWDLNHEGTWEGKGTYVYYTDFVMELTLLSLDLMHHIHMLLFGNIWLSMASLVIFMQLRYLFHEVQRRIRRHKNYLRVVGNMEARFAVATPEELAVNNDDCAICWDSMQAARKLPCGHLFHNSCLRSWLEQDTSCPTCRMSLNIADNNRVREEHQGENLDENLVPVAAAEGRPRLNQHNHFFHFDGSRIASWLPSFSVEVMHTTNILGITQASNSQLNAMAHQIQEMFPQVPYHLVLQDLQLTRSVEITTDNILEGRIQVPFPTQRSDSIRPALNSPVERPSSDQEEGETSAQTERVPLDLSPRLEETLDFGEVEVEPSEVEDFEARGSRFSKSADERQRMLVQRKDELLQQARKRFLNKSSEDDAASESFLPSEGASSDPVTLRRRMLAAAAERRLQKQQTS

B1: FAM134B (construct and tag not told for these supplementary panels) (natural protein)
chain: MASPAPPEHAEEGCPAPAAEEQAPPSPPPPQASPAERQQQEEEAQEAGAAEGAGLQVEEAAGRAAAAVTWLLGEPVLWLGCRADELLSWKRPLRSLLGFVAANLLFWFLALTPWRVYHLISVMILGRVIMQIIKDMVLSRTRGAQLWRSLSESWEVINSKPDERPRLSHCIAESWMNFSIFLQEMSLFKQQSPGKFCLLVCSVCTFFTILGSYIPGVILSYLLLLCAFLCPLFKCNDIGQKIYSKIKSVLLKLDFGIGEYINQKKRERSEADKEKSHKDDSELDFSALCPKISLTVAAKELSVSDTDVSEVSWTDNGTFNLSEGYTPQTDTSDDLDRPSEEVFSRDLSDFPSLENGMGTNDEDELSLGLPTELKRKKEQLDSGHRPSKETQSAAGLTLPLNSDQTFHLMSNLAGDVITAAVTAAIKDQLEGVQQALSQAAPIPEEDTDTEEGDDFELLDQSELDQIESELGLTQDQEAEAQQNKKSSGFLSNLLGGH
In the case of B1, the binding result was “binds”.
